{
  "source": "IntAct's records for PubMed 15670823",
  "biological_target": "cnkr1_human CNKSR1 (UniProt Q969H4)",
  "sequence (Q969H4 whole entry)": "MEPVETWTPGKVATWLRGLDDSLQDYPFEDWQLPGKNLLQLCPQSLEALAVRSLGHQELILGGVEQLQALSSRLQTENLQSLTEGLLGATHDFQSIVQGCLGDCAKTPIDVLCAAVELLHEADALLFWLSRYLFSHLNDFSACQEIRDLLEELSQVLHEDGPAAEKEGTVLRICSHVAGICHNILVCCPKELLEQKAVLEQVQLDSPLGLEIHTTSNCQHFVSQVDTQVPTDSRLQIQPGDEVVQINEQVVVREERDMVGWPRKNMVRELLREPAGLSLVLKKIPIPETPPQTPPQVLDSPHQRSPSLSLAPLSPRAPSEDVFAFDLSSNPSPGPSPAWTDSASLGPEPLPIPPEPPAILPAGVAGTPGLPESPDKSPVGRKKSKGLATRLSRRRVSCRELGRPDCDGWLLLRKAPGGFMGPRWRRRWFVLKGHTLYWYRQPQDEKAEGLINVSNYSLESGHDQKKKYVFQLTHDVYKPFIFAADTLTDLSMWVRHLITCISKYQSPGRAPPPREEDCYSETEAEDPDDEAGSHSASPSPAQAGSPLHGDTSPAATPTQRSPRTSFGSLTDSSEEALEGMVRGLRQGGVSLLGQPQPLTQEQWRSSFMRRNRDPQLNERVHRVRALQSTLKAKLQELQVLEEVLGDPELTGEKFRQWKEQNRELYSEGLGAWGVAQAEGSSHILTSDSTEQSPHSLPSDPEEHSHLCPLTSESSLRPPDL",
  "data": [
    {"substance": "Rho-related GTP-binding protein RhoC (Homo sapiens), P08134 G14V", "values": [
      {"measurement": "effect of a mutation on the interaction", "result": "increasing interaction"}
    ]}
  ]
}
